In publication PMC8338886 (Clinical Cancer Research, 2021):
Numbering of substitutions follows the chain as printed.

Biological target: T1, Human PD-L2 (human, UniProt Q9BQ51)
T1 sequence: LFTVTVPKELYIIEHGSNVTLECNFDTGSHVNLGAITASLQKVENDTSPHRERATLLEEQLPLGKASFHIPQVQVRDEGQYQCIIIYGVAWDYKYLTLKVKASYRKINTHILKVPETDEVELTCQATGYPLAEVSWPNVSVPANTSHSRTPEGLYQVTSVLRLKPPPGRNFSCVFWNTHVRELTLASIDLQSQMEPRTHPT
Test: SPR

B1: sPD-1V1 Fc (Fc fusion)
chain: LDSPDRPWNPPTFSPALLVVTEGDNATFTCSFSNTSESFVLNWYRMSPSNQTDKLAAFPEDRGQLGQDCRFRVTQLPNGRDFHMSVVRARRSDSGTYLCSAIVLAPKIQIKESLRVELRVTERRAEVPTAHPSPSPRPAGQFQTLV
- Kd: 2.95 nM

B2: sPD-1V2 Fc (Fc fusion)
chain: B1 chain with S92N
- Kd: 3.4 nM
